According to patent US20250297004A1, “NECTIN-4 BINDING AGENTS” (INNATE PHARMA, priority 2022, published 2025):

Columns and labels:
Assay in all cases: Species cross-reactivity by flow cytometry on CHO cell lines
Assay type in all cases: binding
[1] = test system: rat Nectin-4 protein expressed on CHO cells; details: FIG. 6A
Protocol: (§1) Anti-Nectin-4 antibodies were tested by flow cytometry for binding to different CHO cell lines made to express respectively the mouse, cynomolgus and rat Nectin-4 protein (including an N-terminal V5 tag not shown in the sequences below).
(§2) The mature amino acid sequence of the proteins expressed by the cells were as follows: […]

[2] = molecular target: T1, mouse Nectin-4 protein expressed on CHO cells (Mus musculus, UniProt Q8R007)
T1 construct: V5 (N); expressed in transfected cells; host or cells: CHO
T1 sequence (Q8R007 32-508): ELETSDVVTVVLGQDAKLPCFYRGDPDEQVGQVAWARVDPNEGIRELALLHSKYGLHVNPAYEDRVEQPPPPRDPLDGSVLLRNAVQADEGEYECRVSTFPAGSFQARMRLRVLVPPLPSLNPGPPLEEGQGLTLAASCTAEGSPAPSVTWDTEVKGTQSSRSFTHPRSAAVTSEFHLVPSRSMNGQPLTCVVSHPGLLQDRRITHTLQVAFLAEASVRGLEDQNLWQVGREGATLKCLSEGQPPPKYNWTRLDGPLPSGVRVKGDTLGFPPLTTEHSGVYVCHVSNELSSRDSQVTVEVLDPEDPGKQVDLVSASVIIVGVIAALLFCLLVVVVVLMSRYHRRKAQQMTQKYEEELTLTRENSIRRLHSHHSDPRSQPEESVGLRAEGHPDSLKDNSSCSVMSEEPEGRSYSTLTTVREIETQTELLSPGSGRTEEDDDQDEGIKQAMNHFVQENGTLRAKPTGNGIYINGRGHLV
Protocol: as §1, §2

[3] = test system: cynomolgus Nectin-4 protein expressed on CHO cells; details: FIG. 6B
Protocol: as §1, §2

cynomolgus Nectin-4 protein expressed on CHO cells, sequence (as listed by the source): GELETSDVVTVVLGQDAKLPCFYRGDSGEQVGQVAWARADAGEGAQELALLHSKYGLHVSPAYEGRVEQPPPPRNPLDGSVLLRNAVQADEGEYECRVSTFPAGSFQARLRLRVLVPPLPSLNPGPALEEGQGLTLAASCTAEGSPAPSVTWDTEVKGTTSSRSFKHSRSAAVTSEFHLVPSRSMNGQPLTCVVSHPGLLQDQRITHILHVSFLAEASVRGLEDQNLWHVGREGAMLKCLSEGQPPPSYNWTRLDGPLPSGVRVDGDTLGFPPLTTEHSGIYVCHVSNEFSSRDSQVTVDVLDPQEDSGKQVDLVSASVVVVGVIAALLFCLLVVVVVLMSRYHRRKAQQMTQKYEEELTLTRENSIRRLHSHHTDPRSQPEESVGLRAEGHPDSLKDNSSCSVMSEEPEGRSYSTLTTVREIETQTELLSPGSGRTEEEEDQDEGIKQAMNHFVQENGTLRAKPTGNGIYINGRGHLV
rat Nectin-4 protein expressed on CHO cells, sequence (as listed by the source): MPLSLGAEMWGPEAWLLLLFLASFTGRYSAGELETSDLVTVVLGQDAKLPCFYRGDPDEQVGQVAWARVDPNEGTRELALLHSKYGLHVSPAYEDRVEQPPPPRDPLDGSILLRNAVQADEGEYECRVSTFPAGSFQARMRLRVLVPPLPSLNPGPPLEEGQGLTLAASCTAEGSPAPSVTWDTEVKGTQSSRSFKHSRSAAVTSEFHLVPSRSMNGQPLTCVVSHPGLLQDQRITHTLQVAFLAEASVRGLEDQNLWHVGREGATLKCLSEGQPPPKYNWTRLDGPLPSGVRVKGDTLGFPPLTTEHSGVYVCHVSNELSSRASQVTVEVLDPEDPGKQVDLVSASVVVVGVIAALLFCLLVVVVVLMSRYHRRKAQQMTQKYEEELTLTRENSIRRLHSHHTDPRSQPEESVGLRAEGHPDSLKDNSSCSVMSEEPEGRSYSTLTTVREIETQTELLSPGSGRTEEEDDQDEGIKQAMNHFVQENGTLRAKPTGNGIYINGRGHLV

B1: 5E7 (antibody, V domains shown)
VH: QVQLQQPGAELVKPGASVKLSCKASGYIFTSYWMHWVKQRPGQGLEWIGEIDPSDSYTNYNQKFKGKATLTLDKSSSTTYMQLSSLTSEDSAVYYCVRGYGNYGDYWGQGTTLTVSSASTKGP
VL: DVVMTQAAFSNPVTLGTSASISCRSSKSLLHSNGITYLYWYLQKPGQSPQLLIYQMSNLASGVPDRFSSSGSGTDFTLRISRVEAEDVGVYYCAQNLELPWTFGGGTKLEIKRTVAAP
binding to rat Nectin 4 protein [1]: bound | binding to mouse Nectin 4 protein [2]: lack binding | binding to cynomolgus Nectin 4 protein [3]: bound
